# Assay results published in the supplement of paper PMC9170038.
# System: MS2 coat protein
# Assay: apparent KD of MS2 coat protein; designed switch direction (-1 OFF switch, 1 ON switch): -1; higher = weaker reporter binding
# Summary of the method: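 Three titration conditions were used: no input, 200 uM small-molecule ligand, and an oligonucleotide input. In each, SNAP-549-labelled MS2 coat protein was raised from 0.7 or 1.5 nM, doubling, to 3 µM over designed RNA switches transcribed on Illumina chips by stalled E. coli RNA polymerase. Curve fits of normalised cluster fluorescence gave values whose per-design median over clusters is the apparent KD.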
# [1] = input ligand: microRNA oligo, concentration not stated
# [2] = Eterna round: R95, input ligand: microRNA oligo, concentration not stated
# [3] = Eterna round: R95, input ligand: FMN 200 uM
# [4] = Eterna round: R95, input ligand: none
Sequence,apparent KD of MS2 coat protein (input ligand: FMN 200 uM),apparent KD of MS2 coat protein [1],apparent KD of MS2 coat protein (input ligand: none),apparent KD of MS2 coat protein [2],apparent KD of MS2 coat protein [3],apparent KD of MS2 coat protein [4]
"ACAUGAGGAUCACCCAUGUCUGGCUGGUCCGUCUCGGCUGUCGAGGAUAUGGCUCGGUGUCCGCGCUAGAAGGCGGGAGCUGGU [Aenatbe mod 79] (Eterna round: R96, puzzle: Exclusion NG 3)",195 nM,45 nM,77.5 nM,,,
ACUAGAUGAGGAUAUGCAUAUUUUCGUGUUCUUCUAGGUUAACAUGAGGAUCACCCAUGUAGAAGGCGUCUAUU [Exclusion 2 - 23] (puzzle: Exclusion 2),,,,18.6 nM,,
"CAUAGUUACUCAGGAUAUACUACAUGAGGAUCACCCAUGUAAUAAAUGAGAAUUUCGAAUGUAUAGUAGAAGGGAGAAAUCUAC [Ostracism 56 - Jieux - Exclusion NG 2] (Eterna round: R96, puzzle: Exclusion NG 2)",18.3 nM,14.7 nM,23.8 nM,,,
"UGUUGUCGCGCAGGAUAUGAGGAUCACCCAUAUCAGGAUAUCGAAAGAGAAUUUCUGAGGAUCACCCAGAAGGGCGGGACAACU [pwkr exNG2 2xF5 2xFMN.34] (Eterna round: R96, puzzle: Exclusion NG 2)",210 nM,35.6 nM,42.9 nM,,,
"UUGCAGUCGUCAGGAUAUAGUAUUACGGCCAUUUAUUUUUUCAUACAUGAGGAUCACCCAUGUCGCUAGAAGGGAUUAUCGAUU [salish99_ExNG2_r04_102] (Eterna round: R96, puzzle: Exclusion NG 2)",,38.9 nM,,,,
"AGUUGGCGAGGAUAUACAUGAGGAUCACCCAUGUGAGAGGUACUAGUGAGGUCGAUUAGUAGAAGGCGCUGACA [Mat X3R4 m10] (Eterna round: R97, puzzle: Exclusion 3)",2100 nM,,48.3 nM,,,
CUUAUGUGAGGAUAUCAGUAGUGAUACGAUAGUAUUACUGCUGAGAAGGUACAUGAGGAUCACCCAUGUUCCUC [Exclusion 4 - Mod Omei Ex4 344 mod 4 v.1] (puzzle: Exclusion 4),,,,16.2 nM,,
GUGUAACAAGGAUAUACAUGAGGAUCACCCAUGUGAAUAAGAUUGAAUAAGAUAAAGUGUAGAAGGUGUAGUGU [Excluse me!!! 9 - Jieux - Exclusion 3] (puzzle: Exclusion 3),,,,31.6 nM,32.5 nM,37.1 nM
"UGUUGUCGCGUAGGAUAUGUAUGAGGAUCACCCAUUAAUAAAUUUUAACCACGAGGAUCACCCGUGUAGAAGGACGGGACAACA [pwkr exNG2 2xF5 1xFMN.16] (Eterna round: R96, puzzle: Exclusion NG 2)",37.9 nM,18.1 nM,30.6 nM,,,
"AAGAUGCCAAAGGAUAUCGAAGGAGUGGCGCGGCGAGAAGGUUGGACAUGAGGAUCACCCAUGUGGUGGCUCCC [Usmaarri] (Eterna round: R97, puzzle: Exclusion 6)",703 nM,,1070 nM,,,
"GCCGAAAAUGUGAGGAUAUACCUAUGGAUACAUAGGUAGAAGGCACAUGAGGAUCACCCAUGUCCAAUAACGGC [Eli bmx4 4.25] (Eterna round: R97, puzzle: Brourd's mod of Exclusion 4)",528 nM,,223 nM,,,
GCCAGAGCAGGAUAUUCAAUAAUCCACAUGAGGAUCACCCAUGUCCAGCGAAAGCUGGAGGGAGAAGGGCUCUGGC [Fiskers Ex 5 - 7] (puzzle: Exclusion 5),,,,73.4 nM,,
GCCAGAGCAGGAUAUUCAAUAAUUCACAUGAGGAUCACCCAUGUCCAGCGAAAGCUGGAGGGAGAAGGGCUCUGGC [Fiskers Ex 5 - 2] (puzzle: Exclusion 5),,,,33.4 nM,17.5 nM,44.3 nM
CGUAUGUGAGGAUAUGACAAUGGUAUCUUCGGAUACCAUUGUCAGAAGGUACAUGAGGAUCACCCAUGUAGAUC [Exclusion 4 - Mod Brourd Ex 4-3: 20 v.3] (puzzle: Exclusion 4),,,,24 nM,,
"CAUGAAGACAAGGAUAUCCGAAUGACGUAAGAAGGAGAAGGUGUCACAUGAGGAUCACCCAUGUGGGAUCUCUG [EX6 B.15] (Eterna round: R97, puzzle: Exclusion 6)",138 nM,,23.9 nM,,,
"GAUGCACAUGAGGAUCACCCAUGUGAGGAUAUCAUUCCUAGAUCAGUCGGUCAGGAAAUGAGAAGGCGCCGGGA [Eternabot (L2) Solution 5] (Eterna round: R97, puzzle: Exclusion 1)",28.6 nM,,23.6 nM,,,
"GUCAGCUCGUCAGGAUAUAUAUAUACAUGAGGAUCACCCAUGUUAGAUCAGCUUCGGCAGUAUAUAUAGAAGGGACGAGCUGAC [ENG2/15-B1] (Eterna round: R96, puzzle: Exclusion NG 2)",153 nM,59 nM,72.5 nM,,,

Sequence,apparent KD of MS2 coat protein (input ligand: FMN 200 uM),apparent KD of MS2 coat protein [1],apparent KD of MS2 coat protein (input ligand: none),apparent KD of MS2 coat protein [2],apparent KD of MS2 coat protein [3],apparent KD of MS2 coat protein [4]
AAGAAACAUGAGGAUCACCCAUGUGAGGAUAUGAAAAAGAAAAGAAAAGAAAGAAGAAUCAGAAGGCACAAAGG [salish99-ex1_r3_019] (puzzle: Exclusion 1),,,,30.7 nM,40.5 nM,34 nM
"UAUUAGCAAGUAAGGUCCCACAUGAGGAUCACCCAUGUGCUCGUCUCCUCAGGUACGGAGCGGAAACUCCCGAUAUG [Sensor-V1 #92] (Eterna round: R97, puzzle: Sensor, turn-off variant 1)",121 nM,,102 nM,,,
AAGAAACAUGAGGAUCACCCAUGUGAGGAUAUGACGAAGAAAAGAAAAGAAAGAAGAUUCAGAAGGCACAAAGG [salish99-ex1_r3_061] (puzzle: Exclusion 1),,,,42.9 nM,90.1 nM,56.4 nM
"GUAAUUAAUGUAGGAUAUGCAAGGCGAACCUAAGCAGAAGGACAUGAGGAUCACCCAUGUAUUGCGGUCUGCGUUCAGAUCGCU [salish99_ExNG1_r4_009] (Eterna round: R96, puzzle: Exclusion NG 1)",,15.4 nM,,,,
"AGUAACCGGGCUUUUUGCUACAUGAGGAUCACCCAUGUUUAAGCGGAGGGAUUGAUCGUCCUAAAUUCUUUAGUCGG [Eternabot (L2) Solution 8] (Eterna round: R97, puzzle: Sensor, turn-off variant 1)",16.8 nM,,17.4 nM,,,
"CGGUGUAGAGGAUAUACGUGGAUGUAAAUUCAUGAUAUUUUACAUGAGGAUCACCCAUGUAGAAGGCUAUAGCG [JR_Ex2_Sub078] (Eterna round: R97, puzzle: Exclusion 2)",74.2 nM,,229 nM,,,
"CUGAACCCGGUAGGAUAUAUUGUGGGCAAGCGUGGAACGACAUGAGGAUCACCCAUGUAAUUUAGGUAGAAGGGCCGAGAGAUU [Excl-NG2-LRO12] (Eterna round: R96, puzzle: Exclusion NG 2)",32.5 nM,41.5 nM,41.5 nM,,,
"CUAGCGAUUGUAGGAUAUCGGACUGUUUCAGUCUGAGAAGGACAUGAGGAUCACCCAUGUGAAGGAUCGUGAGAUCCACGCUAG [JL ENG1 3.79] (Eterna round: R96, puzzle: Exclusion NG 1)",112 nM,17.9 nM,22 nM,,,
"CCCGGGUCAGGAUAUCACUUAAGCGCAGUGAGCGUCUGAGAUGAGAAGGGACAUGAGGAUCACCCAUGUGUGGC [Eternabot (L2) Solution 66] (Eterna round: R97, puzzle: Exclusion 4)",456 nM,,93.7 nM,,,
UUUUCUUUUGUGAGGAUAUACUUGUUUUUUUUUUUGUAGAAGGCACAUGAGGAUCACCCAUGUUUUCUUUCCUG [JR_BME4_Sub025] (puzzle: Brourd's mod of Exclusion 4),,,,20.1 nM,,
"AACAUCGUAGGAUAUUCGUGCUCAGACAUGAGGAUCACCCAUGUUUGGUGGGUUGGAGAAGGAGAAGGGCGAUGGA [EX5 #18] (Eterna round: R97, puzzle: Exclusion 5)",67.9 nM,,92.8 nM,,,
"GAAAAACAUGAGGAUCACCCAUGUAAGGAUAUGCUGAAAAACACGGAAAAAACGUGCAGCAGAAGGUACAAAAG [Mat - Exclusion 1 - Eli mod - D91] (Eterna round: R96, puzzle: Exclusion 1)",107 nM,44.8 nM,71.1 nM,,,
"GCACGGAGUGUAGGAUAUUAGUGCGAUUAGCACUGAGAAGGACAUGAGGAUCACCCAUGUUCCUCAUAAAUUAGCCUUCCGUGC [Eli exng1 - 037] (Eterna round: R96, puzzle: Exclusion NG 1)",27.4 nM,21 nM,27 nM,,,
"AUAAGUAUAUAGGAUAUCUAGCUGGAAACAGCUAGAGAAGGAUGUACAUGAGGAUCACCCAUGUAAAUCAAUAG [Ex6/8-A2] (Eterna round: R97, puzzle: Exclusion 6)",17.9 nM,,19.6 nM,,,
"UUUUUAUAUGAAGGAUAUACUUAACAUGAGGAUCACCCAUGUGGUGUUGUGAGUGAGUGAGUUUAGUAGAAGGUCAAGUAUUUG [JMF's solution 42] (Eterna round: R96, puzzle: Exclusion NG 2)",689 nM,204 nM,342 nM,,,
"GCAGCAUAGUCGGAAACGACAGAACAUGAGGAUCACCCAUGUCAGGAUAUGGUCUGGAUUACAGGCCAGAAGGGACAAAGCUGC [Eli exng3 - 008] (Eterna round: R96, puzzle: Exclusion NG 3)",19.6 nM,14.1 nM,19.8 nM,,,
"AACAAGUGAGGAUAUGAACCACUUGCCCACGCAUGCGUGGAUCAGAAGGCACUUGAGGAUCACCCAAGUCCUAA [Texeusso] (Eterna round: R97, puzzle: Exclusion 4)",49.7 nM,,21.3 nM,,,
